This assay deals with human NRP1 protein (human, UniProt O14786 22-856). Description: ELISA.

Substitutions are numbered along the chain they refer to.

B1: 1A03 anti-NRP1 IgG antibody (antibody, V domains shown)
VH: EVQLLESGGGLVQFGGSLRLSQAASGFTFSSYYMSWVRQAFGKGLEWVSAISFGSSNKYYADSVQGRFTISRDNSKNTLYLQMNELRAEDTAVYYCARRKKSFDYWGQGTLVTVSS
VL: QSVLTQFFSASGTPGQRVTISCSGFSSNIGNNDVSWYQQLFGTAPKLLIYSCNNRPSGVPDRFSGSKSGTSASLAISGLRSSDEADYYCGAWVASLSAYVFGGGTKLTVTL
A word on the Kd: it is the equilibrium constant for the complex coming apart. Low values mean tighter binding, high ones weaker binding. Take B1: the Kd turned out to be 1110 nM.

B2: IRCR-101 (3H10 converted into IgG format) (antibody, V domains shown)
VH: B1 VH with G15Q, G16Q, G26Q, F53P, Q65K, K101Y, S102M
VL: GSVLTQPPSASGTPGQRVTISCTGESSNIGNNDVYWYQQLPGTAFKLLIYSQSNRPSGMPDRFSGSKSGTSASLAISGLRSEDEADYYCASWDSSLSGYVFGGGTKLTVTL
Consider B2, for which the Kd came out at 426 nM. This Kd is about 2.6-fold lower than that of the molecule before.

(Values after patent US20200011878A1 (published 2020).)
